Reference: the RNAGym collection of RNA variant scans (doi:10.1073/pnas.2313332121)
This sample holds only a part of the variants without activity.

B1: TPR 5TU (parent)
chain: GGAUCUUCUCGAUCUAACAAAAAAGACAAAUCUGCCACAAAGCUUGAGAGCAUCUUCGGAUGCAGAGGCGGCAGCCUUCGGUGGCGCGAUAGCGCCAACGUUCUCAACUAUGACACGCAAAACGCGUGCUCCGUUGAAUGGAGUUUAUCAUG

Variants of: B1
Test: polymerase ribozyme fitness, log enrichment relative to wild type (log ratio); higher = more active; in vitro selection for triplet polymerase activity
How it was run: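 For each subunit of a heterodimeric triplet polymerase ribozyme, a mutant library was built by PCR and transcribed, then taken through a single in vitro selection round in triplicate. Selection involved annealing to a biotinylated primer, the partner subunit and triplets, incubation frozen at −7 °C, gel excision of extended constructs, capture on streptavidin beads and RT-PCR. Genotypes were retained after Illumina sequencing of inputs and outputs only with ≥10 input reads and ≥1 read in each output. Fitness is defined as the logarithm of a genotype's enrichment relative to wild-type enrichment, using inverse-variance-weighted averages across replicates, with the logarithm taken to base 2.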

Going from U45A G92C to U45A G92U, the “polymerase ribozyme fitness (log ratio)” value rises from -3.75 to -2.75.

Going from U45A G50U G83U C87U C103U C105A to U44G U135A, the “polymerase ribozyme fitness (log ratio)” value rises from at most -4.2 to -3.83.

U45A C51U G74A C95A U135G and G42U U44A C54A G88U cannot be ordered by “polymerase ribozyme fitness (log ratio)” value: at most -4.2 for the first, at most -4.2 for the second.

Going from U44G C93U A137G U148C to U44A G83U, the “polymerase ribozyme fitness (log ratio)” value rises from at most -4.2 to -3.94.

C43A A47C U53A A91G and C43G G83C cannot be ordered by “polymerase ribozyme fitness (log ratio)” value: at most -4.2 for the first, at most -4.2 for the second.

U44A U77A C95A G143A and U45G C103A A150U cannot be ordered by “polymerase ribozyme fitness (log ratio)” value: at most -4.2 for the first, at most -4.2 for the second.

Going from U44A C76U G86U A121U to U45A G59U G74U A121G G141A, the “polymerase ribozyme fitness (log ratio)” value falls from -3.86 to at most -4.2.

U45C G48C C99A G143A U148C and G42U G70C G83C G141C cannot be ordered by “polymerase ribozyme fitness (log ratio)” value: at most -4.2 for the first, at most -4.2 for the second.

Going from G42U U45C C72U C85G A98G A106C G117U to C43A C96A U101G A150U, the “polymerase ribozyme fitness (log ratio)” value rises from at most -4.2 to -4.16.

C43A U53A U55A G74A C76A G88U A142G and U44G G58C C87G cannot be ordered by “polymerase ribozyme fitness (log ratio)” value: at most -4.2 for the first, at most -4.2 for the second.

U44G C51U G74A G94C A120U C149G and C43A U53G A64U C95U A110U A150C cannot be ordered by “polymerase ribozyme fitness (log ratio)” value: at most -4.2 for the first, at most -4.2 for the second.

C43U G46C G83U and U45A A47C U61A G92A C114A C123G U146G cannot be ordered by “polymerase ribozyme fitness (log ratio)” value: at most -4.2 for the first, at most -4.2 for the second.

U45A G133A U134C and U44G G58U A98G U144A cannot be ordered by “polymerase ribozyme fitness (log ratio)” value: at most -4.2 for the first, at most -4.2 for the second.

Going from C43U A91U A98G C99U U102G to U45G C85G, the “polymerase ribozyme fitness (log ratio)” value rises from at most -4.2 to -3.44.

Going from U45A A73U to U45A C76U A98U G100C U101G A106U, the “polymerase ribozyme fitness (log ratio)” value rises from at most -4.2 to -4.

C43A A73G G83A A89U U90C G136C G141C and U44A C51U C76U C95A cannot be ordered by “polymerase ribozyme fitness (log ratio)” value: at most -4.2 for the first, at most -4.2 for the second.

Going from U45A G84A A115C to G42U C76G G80A C95G, the “polymerase ribozyme fitness (log ratio)” value falls from -3.88 to at most -4.2.

U45C A49C G70C G83C A137C U144C and C43U G59C U77A U111C cannot be ordered by “polymerase ribozyme fitness (log ratio)” value: at most -4.2 for the first, at most -4.2 for the second.

U44A G88A A120U and U44A G88A A120G cannot be ordered by “polymerase ribozyme fitness (log ratio)” value: at most -4.2 for the first, at most -4.2 for the second.

U44A A47C and G42U U45A C95U C149A cannot be ordered by “polymerase ribozyme fitness (log ratio)” value: at most -4.2 for the first, at most -4.2 for the second.

U45A C85A C93U C96U C118A C132A and G42U A91G G128U G133A cannot be ordered by “polymerase ribozyme fitness (log ratio)” value: at most -4.2 for the first, at most -4.2 for the second.

U44A A89U G92C C95U and U45G G68U cannot be ordered by “polymerase ribozyme fitness (log ratio)” value: at most -4.2 for the first, at most -4.2 for the second.

U44A G80A A138U A150G and G42U U56A A120U A142C cannot be ordered by “polymerase ribozyme fitness (log ratio)” value: at most -4.2 for the first, at most -4.2 for the second.

G42U U44G A60G G71A G86A A106U U134G U135C and U44C G83C U148A cannot be ordered by “polymerase ribozyme fitness (log ratio)” value: at most -4.2 for the first, at most -4.2 for the second.

Going from U45G G84U to U45A A64C C93A, the “polymerase ribozyme fitness (log ratio)” value falls from -1.97 to at most -4.2.

Compared with U45G C87U, U45G G80C A106G A119U A121U G124C G133U is lower in “polymerase ribozyme fitness (log ratio)” value: -1.32 for the first, at most -4.2 for the second.

U44A G50A C79A C99U U102G C108U and C43A A49U G74A G86C C93A C105U U144A cannot be ordered by “polymerase ribozyme fitness (log ratio)” value: at most -4.2 for the first, at most -4.2 for the second.

U45A G83U C85G C95U and U45A G84U C108G cannot be ordered by “polymerase ribozyme fitness (log ratio)” value: at most -4.2 for the first, at most -4.2 for the second.

First: C43G G94A G133U A137U
Second: U45A A47U G80U U90A
The “polymerase ribozyme fitness (log ratio)” value of the first is higher: -4.11 for the first, at most -4.2 for the second.

Compared with U44C G94C U146A, C43G G86U U139C is higher in “polymerase ribozyme fitness (log ratio)” value: at most -4.2 for the first, -4.11 for the second.

C43U G68A G86U and U44A C85U U139C cannot be ordered by “polymerase ribozyme fitness (log ratio)” value: at most -4.2 for the first, at most -4.2 for the second.

G42U U44A C85A C96G A115C C129A and G42U U45G U53C G88U A137C cannot be ordered by “polymerase ribozyme fitness (log ratio)” value: at most -4.2 for the first, at most -4.2 for the second.

U44A G62U G80C G140C and C43U U45A C63U G81A C95G U111A cannot be ordered by “polymerase ribozyme fitness (log ratio)” value: at most -4.2 for the first, at most -4.2 for the second.

G42U A73G U78G C93A U146A and C43U U56A C72A C85A cannot be ordered by “polymerase ribozyme fitness (log ratio)” value: at most -4.2 for the first, at most -4.2 for the second.

Going from U44A U144C to U44G G59C U78C G117U G143C, the “polymerase ribozyme fitness (log ratio)” value falls from -3.62 to at most -4.2.

C43U G84U A113U and C43A A52G C69U A91U C96U A106U cannot be ordered by “polymerase ribozyme fitness (log ratio)” value: at most -4.2 for the first, at most -4.2 for the second.

U45G C93A A113U C116U and U44C G59U G92A U135A cannot be ordered by “polymerase ribozyme fitness (log ratio)” value: at most -4.2 for the first, at most -4.2 for the second.

U45G C75U C103G C118G and U45G G48A G88C A106G cannot be ordered by “polymerase ribozyme fitness (log ratio)” value: at most -4.2 for the first, at most -4.2 for the second.

U45A G88C A113C U134A and C43U A47G A64C G67U C96U G141A cannot be ordered by “polymerase ribozyme fitness (log ratio)” value: at most -4.2 for the first, at most -4.2 for the second.

U45A C69A C95U C99G G112U C114U A147U and C43U G58A U90C C132A G143U cannot be ordered by “polymerase ribozyme fitness (log ratio)” value: at most -4.2 for the first, at most -4.2 for the second.

C43G G50C G62A G84A G92C and U45A G86A A142G cannot be ordered by “polymerase ribozyme fitness (log ratio)” value: at most -4.2 for the first, at most -4.2 for the second.

U44A C57G C69G G80C U82A C108A U109G G141C and G42U U56A C75G A91U G126A U144A cannot be ordered by “polymerase ribozyme fitness (log ratio)” value: at most -4.2 for the first, at most -4.2 for the second.
